Results: article PMC7224192, “MYC transcription activation mediated by OCT4 as a mechanism of resistance to 13-cisRA-mediated differentiation in neuroblastoma”

B1: Biotin-MYC-1209/-1140 WT (OBS1+OBS2) (dsDNA)
DNA 1: CTGTGCATACATAATGCATAATACATGACTCCCCCCAACAAATGCAATGGGAGTTTATTCATAACGCGCT
DNA 2: AGCGCGTTATGAATAAACTCCCATTGCATTTGTTGGGGGGAGTCATGTATTATGCATTATGTATGCACAG
B2: Biotin-MYC-1209/-1166 WT (OBS1) (dsDNA)
DNA 1: CTGTGCATACATAATGCATAATACATGACTCCCCCCAACAAATGC
DNA 2: GCATTTGTTGGGGGGAGTCATGTATTATGCATTATGTATGCACAG
B3: Biotin-MYC-1173/-1145 WT (OBS2) (dsDNA)
DNA 1: ACAAATGCAATGGGAGTTTATTCATAAC
DNA 2: GTTATGAATAAACTCCCATTGCATTTGT

Assays:
OCT4 [1] = molecular target: T1, OCT4 (human, UniProt Q01860 1-360); test: EMSA; mono- and di-OCT4 complexes; 20 fmol probe; Panomics EMSA Gel Shift Kit per manufacturer; OCT4 0.5 mg as printed (likely ug), biotin probe 20 fmol; buffer, pH and temperature not stated; conditions: protein: commercial; label: biotin at 5' end
T1 sequence (Q01860 whole entry): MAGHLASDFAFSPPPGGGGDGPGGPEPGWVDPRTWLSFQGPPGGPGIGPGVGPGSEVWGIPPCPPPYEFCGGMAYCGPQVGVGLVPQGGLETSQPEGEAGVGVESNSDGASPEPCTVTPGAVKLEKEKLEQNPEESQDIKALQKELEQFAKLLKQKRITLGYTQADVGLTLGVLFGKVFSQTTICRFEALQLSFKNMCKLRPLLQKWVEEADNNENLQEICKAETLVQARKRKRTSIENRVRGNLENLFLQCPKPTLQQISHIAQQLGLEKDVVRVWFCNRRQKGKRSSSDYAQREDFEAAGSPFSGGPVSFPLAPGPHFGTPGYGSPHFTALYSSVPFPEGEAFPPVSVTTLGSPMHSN

OCT4 [2] = molecular target: T1, OCT4; test: EMSA; mono-OCT4 complex; 20 fmol probe; Panomics EMSA Gel Shift Kit per manufacturer; OCT4 0.5 mg as printed (likely ug), biotin probe 20 fmol; buffer, pH and temperature not stated; conditions: protein: commercial; label: biotin at 5' end

Binder | binding result (OCT4 [1]) | binding result (OCT4 [2])
B1 | binds | –
B2 | binds | –
B3 | – | binds
